The target in the assay is HLA-B*07:02 (human). The experiment in a line: UV ligand exchange ELISA; exchange yield grade. The conditions noted are these: remark: other sources report otherwise. (In general: In an ELISA, binding on a coated surface is turned into a signal by an enzyme label.)

B1: … (peptide)
peptide: YPGWHSTTI
As to B1, the peptide exchange yield was in the range of 20 to 50%.

(Values after patent US20180291083A1.)
